Results as given in paper doi:10.1101/719815 (bioRxiv, 2019).
Values belong to the binder of their own block, whether it stands above or below them.

B1: 6His-Cdc24_(428-854) (domain or fragment)
chain: SSDDNNTKELEAALDISKNIARSINENQRRTENHQVVKKLYGRVVNWKGYRISKFGELLYFDKVFISTTNSSSEPEREFEVYLFEKIIILFSEVVTKKSASSLILKKKSSTSASISASNITDNNGSPHHSYHKRHSNSSSSNNIHLSSSSAAAIIHSSTNSSDNNSNNSSSSSLFKLSANEPKLDLRGRIMIMNLNQIIPQNNRSLNITWESIKEQGNFLLKFKNEETRDNWSSCLQQLIHDLKNEQFKARHHSSTSTTSSTAKSSSMMSPTTTMNTPNHHNSRQTHDSMASFSSSHMKRVSDVLPKRRTTSSSFESEIKSISENFKNSIPESSILFRISYNNNSNNTSSSEIFTLLVEKVWNFDDLIMAINSKISNTHNNNISPITKIKYQDEDGDFVVLGSDEDWNVAKEMLAENNEKFLNIRLY

Key:
SNAP-tagged septin rods = SNAP-tagged septin rods (yeast, UniProt P32458;P32468;P32457;P25342); assay: SPR
Cdc24_(428-854) _(K525E) = target: T1, Cdc24_(428-854) _(K525E) (yeast, UniProt P11433 428-854, K525E); assay: SPR
T1 sequence: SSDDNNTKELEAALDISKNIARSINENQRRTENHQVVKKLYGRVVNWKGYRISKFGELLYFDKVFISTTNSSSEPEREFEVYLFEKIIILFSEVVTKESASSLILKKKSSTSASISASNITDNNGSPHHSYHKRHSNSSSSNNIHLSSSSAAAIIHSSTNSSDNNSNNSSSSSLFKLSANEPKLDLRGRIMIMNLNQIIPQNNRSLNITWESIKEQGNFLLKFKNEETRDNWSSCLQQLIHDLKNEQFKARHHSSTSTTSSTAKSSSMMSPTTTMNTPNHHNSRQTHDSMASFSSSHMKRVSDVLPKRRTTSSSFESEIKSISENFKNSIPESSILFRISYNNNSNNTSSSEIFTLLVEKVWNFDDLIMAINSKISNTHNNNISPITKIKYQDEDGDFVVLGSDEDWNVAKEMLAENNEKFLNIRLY

[1] = target: T2, 6His-Cdc24_(428-854) _(K801A) (yeast, UniProt P11433 428-854, K801A); assay: SPR
T2 sequence: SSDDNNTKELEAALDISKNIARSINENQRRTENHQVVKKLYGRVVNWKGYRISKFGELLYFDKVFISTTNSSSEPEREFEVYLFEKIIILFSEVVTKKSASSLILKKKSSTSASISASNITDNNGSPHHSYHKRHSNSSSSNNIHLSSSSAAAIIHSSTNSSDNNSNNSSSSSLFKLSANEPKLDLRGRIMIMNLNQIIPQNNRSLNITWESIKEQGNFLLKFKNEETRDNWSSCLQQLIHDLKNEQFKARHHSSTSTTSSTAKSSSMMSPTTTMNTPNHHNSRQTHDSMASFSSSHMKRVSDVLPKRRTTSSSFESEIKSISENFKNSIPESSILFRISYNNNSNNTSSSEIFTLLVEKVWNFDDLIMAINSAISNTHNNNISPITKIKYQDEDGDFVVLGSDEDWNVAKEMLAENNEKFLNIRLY

[2] = target: T3, Cdc24_(428-854) _(K525E) _(K801A) (yeast, UniProt P11433 428-854, K525E | K801A); assay: SPR
T3 sequence: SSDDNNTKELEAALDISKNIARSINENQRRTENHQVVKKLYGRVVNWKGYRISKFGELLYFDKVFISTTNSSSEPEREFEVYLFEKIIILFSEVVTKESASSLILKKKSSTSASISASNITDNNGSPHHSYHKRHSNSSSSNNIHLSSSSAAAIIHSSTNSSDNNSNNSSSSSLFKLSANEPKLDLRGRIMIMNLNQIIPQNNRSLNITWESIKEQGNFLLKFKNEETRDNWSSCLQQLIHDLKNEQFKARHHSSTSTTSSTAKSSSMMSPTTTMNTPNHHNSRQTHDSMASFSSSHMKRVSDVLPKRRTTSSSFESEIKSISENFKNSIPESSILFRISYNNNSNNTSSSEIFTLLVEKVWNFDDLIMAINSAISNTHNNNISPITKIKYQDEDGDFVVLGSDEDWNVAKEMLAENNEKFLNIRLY

6His-Cdc24_(428-854) [3] = target: B1; assay: SPR
6His-Cdc24_(428-854) [4] = target: B1; assay: pull-down

Sequence of SNAP-tagged septin rods (P32468 whole entry, chain 2 of 3): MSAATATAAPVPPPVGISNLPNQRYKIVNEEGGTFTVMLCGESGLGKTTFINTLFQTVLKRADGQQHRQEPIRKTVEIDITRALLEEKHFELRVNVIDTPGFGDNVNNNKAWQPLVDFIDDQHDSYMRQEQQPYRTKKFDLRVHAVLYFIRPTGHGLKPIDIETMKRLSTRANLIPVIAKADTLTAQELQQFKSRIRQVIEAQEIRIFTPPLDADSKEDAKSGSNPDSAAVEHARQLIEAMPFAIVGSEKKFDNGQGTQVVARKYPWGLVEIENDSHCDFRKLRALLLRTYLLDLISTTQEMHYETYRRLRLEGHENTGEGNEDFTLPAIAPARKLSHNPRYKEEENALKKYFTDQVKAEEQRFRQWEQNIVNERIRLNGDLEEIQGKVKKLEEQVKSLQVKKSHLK
Sequence of SNAP-tagged septin rods (P32457 whole entry, chain 3 of 3): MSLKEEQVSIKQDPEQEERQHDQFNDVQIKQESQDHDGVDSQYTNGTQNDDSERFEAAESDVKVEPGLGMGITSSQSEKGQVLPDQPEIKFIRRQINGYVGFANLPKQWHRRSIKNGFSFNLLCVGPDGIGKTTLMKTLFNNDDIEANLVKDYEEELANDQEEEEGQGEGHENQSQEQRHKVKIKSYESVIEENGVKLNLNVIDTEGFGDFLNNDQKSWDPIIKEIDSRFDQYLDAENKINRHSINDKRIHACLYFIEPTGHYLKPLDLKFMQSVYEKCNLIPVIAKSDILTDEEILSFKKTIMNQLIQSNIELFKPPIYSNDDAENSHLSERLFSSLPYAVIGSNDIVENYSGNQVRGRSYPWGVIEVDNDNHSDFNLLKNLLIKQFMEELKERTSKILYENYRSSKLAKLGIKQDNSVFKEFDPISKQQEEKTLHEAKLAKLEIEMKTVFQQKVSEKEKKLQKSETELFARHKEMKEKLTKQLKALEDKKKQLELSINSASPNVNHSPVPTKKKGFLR
Sequence of SNAP-tagged septin rods (P25342 whole entry, chain 4 of 3): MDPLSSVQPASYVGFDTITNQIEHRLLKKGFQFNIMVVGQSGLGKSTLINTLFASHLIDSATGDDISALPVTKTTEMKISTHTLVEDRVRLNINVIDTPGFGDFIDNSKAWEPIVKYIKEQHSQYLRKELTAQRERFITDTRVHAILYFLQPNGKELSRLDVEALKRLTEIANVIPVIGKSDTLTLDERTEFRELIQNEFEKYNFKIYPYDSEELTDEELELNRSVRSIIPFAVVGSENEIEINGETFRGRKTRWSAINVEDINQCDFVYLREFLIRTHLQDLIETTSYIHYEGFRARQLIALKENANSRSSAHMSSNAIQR

Binder: B1
Kd (SNAP-tagged septin rods): 351 nM

binding result (Cdc24_(428-854) _(K525E)): binds
binding result [1]: binds
binding result [2]: binds
Kd (6His-Cdc24_(428-854) [3]): 257 nM
B2: 6His-Cdc11-SNAP (natural protein)
chain: MSGIIDASSALRKRKHLKRGITFTVMIVGQSGSGRSTFINTLCGQQVVDTSTTILLPTDTSTEIDLQLREETVELEDDEGVKIQLNIIDTPGFGDSLDNSPSFEIISDYIRHQYDEILLEESRVRRNPRFKDGRVHCCLYLINPTGHGLKEIDVEFIRQLGSLVNIIPVISKSDSLTRDELKLNKKLIMEDIDRWNLPIYNFPFDEDEISDEDYETNMYLRTLLPFAIIGSNEVYEMGGDVGTIRGRKYPWGILDVEDSSISDFVILRNALLISHLHDLKNYTHEILYERYRTEALSGESVAAESIRPNLTKLNGSSSSSTTTRRNTNPFKQSNNINNDVLNPASDMHGQSTGENNETYMTREEQIRLEEERLKAFEERVQQELLLKRQELLQREKELREIEARLEKEAKIKQEE
modifications: biotinylated with BG-Biotin (on the SNAP tag)

binding result (6His-Cdc24_(428-854) [4]): binds
B3: GST-Cdc11 (natural protein)
chain: MSGIIDASSALRKRKHLKRGITFTVMIVGQSGSGRSTFINTLCGQQVVDTSTTILLPTDTSTEIDLQLREETVELEDDEGVKIQLNIIDTPGFGDSLDNSPSFEIISDYIRHQYDEILLEESRVRRNPRFKDGRVHCCLYLINPTGHGLKEIDVEFIRQLGSLVNIIPVISKSDSLTRDELKLNKKLIMEDIDRWNLPIYNFPFDEDEISDEDYETNMYLRTLLPFAIIGSNEVYEMGGDVGTIRGRKYPWGILDVEDSSISDFVILRNALLISHLHDLKNYTHEILYERYRTEALSGESVAAESIRPNLTKLNGSSSSSTTTRRNTNPFKQSNNINNDVLNPASDMHGQSTGENNETYMTREEQIRLEEERLKAFEERVQQELLLKRQELLQREKELREIEARLEKEAKIKQEE
